Values quoted from earlier work in publication PMC3140970.

Biological target: IRSp53 SH3 (UniProt Q9UQB8)
Sequence (Q9UQB8 374-437): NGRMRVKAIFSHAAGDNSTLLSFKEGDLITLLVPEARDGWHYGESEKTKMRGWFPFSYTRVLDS

Sequence of Eps8 (Q08509 whole entry): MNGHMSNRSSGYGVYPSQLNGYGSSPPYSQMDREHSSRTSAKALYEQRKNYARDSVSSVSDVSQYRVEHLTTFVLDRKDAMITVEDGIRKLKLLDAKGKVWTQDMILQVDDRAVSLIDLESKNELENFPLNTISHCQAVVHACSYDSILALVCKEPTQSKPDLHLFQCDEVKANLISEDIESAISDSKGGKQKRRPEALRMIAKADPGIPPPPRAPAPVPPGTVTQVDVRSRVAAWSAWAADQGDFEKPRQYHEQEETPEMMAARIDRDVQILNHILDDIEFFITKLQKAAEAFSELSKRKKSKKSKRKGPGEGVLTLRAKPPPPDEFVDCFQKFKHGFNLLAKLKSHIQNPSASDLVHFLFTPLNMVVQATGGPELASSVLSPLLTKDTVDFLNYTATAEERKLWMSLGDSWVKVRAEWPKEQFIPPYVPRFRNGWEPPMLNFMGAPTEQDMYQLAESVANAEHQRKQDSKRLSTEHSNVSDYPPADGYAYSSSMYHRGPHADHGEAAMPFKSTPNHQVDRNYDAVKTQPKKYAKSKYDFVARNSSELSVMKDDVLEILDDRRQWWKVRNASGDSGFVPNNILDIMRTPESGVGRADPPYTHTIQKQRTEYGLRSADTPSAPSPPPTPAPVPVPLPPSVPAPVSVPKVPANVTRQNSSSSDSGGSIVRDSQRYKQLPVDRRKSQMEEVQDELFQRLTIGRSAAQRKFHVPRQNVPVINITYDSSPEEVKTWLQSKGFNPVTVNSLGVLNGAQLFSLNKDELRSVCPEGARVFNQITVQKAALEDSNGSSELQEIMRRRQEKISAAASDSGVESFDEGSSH

Kd: 0.01 µM
Substance: Eps8 (from UniProt Q08509)
